Holding throughout (assay): cell_activity; HEK293, two sites flanking CMVmini
Common to all, as to settings: tags: EYFP-2A upstream, SV40 NLS

In data set [1] the target is T1, TALER15 (synthetic, UniProt B2SU53 SEQ:1-1010).
T1 chain: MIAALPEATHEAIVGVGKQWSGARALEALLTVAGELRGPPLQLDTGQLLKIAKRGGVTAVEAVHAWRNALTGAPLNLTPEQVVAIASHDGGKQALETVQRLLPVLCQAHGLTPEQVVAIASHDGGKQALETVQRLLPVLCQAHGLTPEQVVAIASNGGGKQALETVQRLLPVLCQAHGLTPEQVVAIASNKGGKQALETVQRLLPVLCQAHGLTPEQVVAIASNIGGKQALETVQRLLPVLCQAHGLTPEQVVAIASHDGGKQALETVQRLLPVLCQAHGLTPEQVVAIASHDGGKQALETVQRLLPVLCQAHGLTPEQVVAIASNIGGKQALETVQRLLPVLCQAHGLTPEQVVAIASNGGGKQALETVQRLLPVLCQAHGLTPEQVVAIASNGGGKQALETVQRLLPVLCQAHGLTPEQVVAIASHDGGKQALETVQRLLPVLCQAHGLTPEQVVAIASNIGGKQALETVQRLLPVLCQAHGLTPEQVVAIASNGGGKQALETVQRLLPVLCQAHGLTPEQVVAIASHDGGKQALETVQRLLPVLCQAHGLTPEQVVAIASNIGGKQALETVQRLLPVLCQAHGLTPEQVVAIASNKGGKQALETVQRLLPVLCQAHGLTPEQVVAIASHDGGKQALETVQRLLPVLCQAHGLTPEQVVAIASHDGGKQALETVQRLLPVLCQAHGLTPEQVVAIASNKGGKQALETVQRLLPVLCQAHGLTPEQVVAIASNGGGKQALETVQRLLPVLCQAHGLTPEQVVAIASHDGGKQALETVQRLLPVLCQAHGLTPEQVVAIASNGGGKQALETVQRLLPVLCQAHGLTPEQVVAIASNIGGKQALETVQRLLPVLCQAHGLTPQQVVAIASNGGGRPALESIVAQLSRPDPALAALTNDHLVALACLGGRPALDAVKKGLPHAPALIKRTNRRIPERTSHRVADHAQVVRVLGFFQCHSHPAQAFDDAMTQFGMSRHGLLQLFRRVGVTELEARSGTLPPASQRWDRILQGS

The target in data set [2] is T2, TALER17 (synthetic, UniProt B2SU53 SEQ:1-1010).
T2 chain: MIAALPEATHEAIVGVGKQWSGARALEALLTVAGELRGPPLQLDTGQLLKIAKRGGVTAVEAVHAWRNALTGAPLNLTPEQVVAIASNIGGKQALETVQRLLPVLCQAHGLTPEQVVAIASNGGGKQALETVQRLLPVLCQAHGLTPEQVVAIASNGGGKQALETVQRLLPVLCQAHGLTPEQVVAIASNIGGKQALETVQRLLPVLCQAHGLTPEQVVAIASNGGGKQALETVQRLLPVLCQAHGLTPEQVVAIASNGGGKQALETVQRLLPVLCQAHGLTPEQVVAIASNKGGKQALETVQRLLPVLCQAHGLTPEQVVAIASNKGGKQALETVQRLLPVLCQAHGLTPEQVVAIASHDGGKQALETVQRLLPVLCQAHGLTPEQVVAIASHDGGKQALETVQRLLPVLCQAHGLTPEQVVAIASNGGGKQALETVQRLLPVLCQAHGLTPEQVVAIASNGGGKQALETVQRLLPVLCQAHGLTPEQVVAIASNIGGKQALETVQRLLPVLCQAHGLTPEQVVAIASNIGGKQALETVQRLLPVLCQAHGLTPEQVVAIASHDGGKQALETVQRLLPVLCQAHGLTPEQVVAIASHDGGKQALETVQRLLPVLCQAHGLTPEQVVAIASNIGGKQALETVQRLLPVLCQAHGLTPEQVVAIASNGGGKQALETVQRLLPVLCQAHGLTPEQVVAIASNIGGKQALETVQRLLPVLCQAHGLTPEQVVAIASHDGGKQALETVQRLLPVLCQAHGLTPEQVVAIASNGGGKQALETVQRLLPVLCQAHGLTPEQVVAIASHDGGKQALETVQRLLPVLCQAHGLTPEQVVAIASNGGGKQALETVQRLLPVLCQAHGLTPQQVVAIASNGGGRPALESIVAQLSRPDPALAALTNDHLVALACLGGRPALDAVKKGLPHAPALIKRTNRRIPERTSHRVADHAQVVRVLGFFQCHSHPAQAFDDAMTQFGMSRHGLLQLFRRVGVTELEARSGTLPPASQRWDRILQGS

Data set [3] has as its target T3, TALER12 (synthetic, UniProt Q56830 SEQ:262-1344).
T3 chain: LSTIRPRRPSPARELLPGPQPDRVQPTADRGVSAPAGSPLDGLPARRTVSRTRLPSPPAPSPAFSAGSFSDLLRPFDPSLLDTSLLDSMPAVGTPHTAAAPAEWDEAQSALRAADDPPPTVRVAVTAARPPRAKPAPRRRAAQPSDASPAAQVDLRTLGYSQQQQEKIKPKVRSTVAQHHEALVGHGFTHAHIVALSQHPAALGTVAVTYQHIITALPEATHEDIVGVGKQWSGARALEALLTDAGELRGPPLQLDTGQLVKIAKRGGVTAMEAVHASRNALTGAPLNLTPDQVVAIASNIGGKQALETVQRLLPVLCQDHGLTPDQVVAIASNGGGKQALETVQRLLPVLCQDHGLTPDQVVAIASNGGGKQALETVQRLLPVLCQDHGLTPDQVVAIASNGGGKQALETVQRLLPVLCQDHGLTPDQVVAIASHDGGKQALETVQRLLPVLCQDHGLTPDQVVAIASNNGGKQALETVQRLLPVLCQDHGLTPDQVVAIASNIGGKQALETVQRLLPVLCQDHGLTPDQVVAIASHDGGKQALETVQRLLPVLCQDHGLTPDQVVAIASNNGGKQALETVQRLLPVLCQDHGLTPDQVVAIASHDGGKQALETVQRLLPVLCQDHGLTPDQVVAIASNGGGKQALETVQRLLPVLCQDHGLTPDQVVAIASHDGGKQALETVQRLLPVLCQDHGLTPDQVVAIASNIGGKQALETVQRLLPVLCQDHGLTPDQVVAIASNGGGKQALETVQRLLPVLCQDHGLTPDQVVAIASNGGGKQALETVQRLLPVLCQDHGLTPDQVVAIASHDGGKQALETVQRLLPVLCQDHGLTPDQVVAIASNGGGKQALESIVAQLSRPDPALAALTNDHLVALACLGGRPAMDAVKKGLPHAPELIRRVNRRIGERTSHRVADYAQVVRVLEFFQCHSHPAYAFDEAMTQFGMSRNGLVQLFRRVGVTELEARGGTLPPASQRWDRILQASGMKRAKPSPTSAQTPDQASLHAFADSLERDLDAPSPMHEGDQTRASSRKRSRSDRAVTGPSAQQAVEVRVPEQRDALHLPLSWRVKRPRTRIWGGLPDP

In data set [4] the target is T4, TALER18 (synthetic, UniProt B2SU53 SEQ:1-1010).
T4 chain: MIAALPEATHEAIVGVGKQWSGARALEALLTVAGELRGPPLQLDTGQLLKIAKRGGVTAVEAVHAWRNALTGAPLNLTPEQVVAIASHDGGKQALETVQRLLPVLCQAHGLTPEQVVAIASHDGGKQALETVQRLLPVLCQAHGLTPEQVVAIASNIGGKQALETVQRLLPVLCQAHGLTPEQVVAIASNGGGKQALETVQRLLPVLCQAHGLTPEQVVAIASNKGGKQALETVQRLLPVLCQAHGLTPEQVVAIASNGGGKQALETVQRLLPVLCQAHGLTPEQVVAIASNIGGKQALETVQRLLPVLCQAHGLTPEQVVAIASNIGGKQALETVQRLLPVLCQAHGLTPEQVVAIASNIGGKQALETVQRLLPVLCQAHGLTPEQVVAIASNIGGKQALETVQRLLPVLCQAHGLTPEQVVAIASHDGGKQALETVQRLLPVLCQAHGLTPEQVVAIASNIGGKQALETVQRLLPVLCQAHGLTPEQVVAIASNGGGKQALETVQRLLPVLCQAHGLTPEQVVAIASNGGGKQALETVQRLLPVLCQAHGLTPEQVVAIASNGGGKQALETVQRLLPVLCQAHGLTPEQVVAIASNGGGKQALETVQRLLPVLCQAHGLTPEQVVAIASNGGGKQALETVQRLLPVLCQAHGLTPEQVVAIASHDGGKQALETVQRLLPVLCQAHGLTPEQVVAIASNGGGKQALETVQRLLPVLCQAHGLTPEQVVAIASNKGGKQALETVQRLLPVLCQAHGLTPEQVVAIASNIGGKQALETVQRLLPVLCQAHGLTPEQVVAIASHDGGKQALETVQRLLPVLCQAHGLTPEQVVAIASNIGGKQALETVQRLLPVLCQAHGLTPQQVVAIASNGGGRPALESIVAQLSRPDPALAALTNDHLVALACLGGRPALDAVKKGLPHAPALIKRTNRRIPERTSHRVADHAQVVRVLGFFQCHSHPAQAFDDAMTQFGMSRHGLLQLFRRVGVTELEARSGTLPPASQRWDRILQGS

For data set [5], the target named is T5, TALER20 (synthetic, UniProt B2SU53 SEQ:1-1010).
T5 chain: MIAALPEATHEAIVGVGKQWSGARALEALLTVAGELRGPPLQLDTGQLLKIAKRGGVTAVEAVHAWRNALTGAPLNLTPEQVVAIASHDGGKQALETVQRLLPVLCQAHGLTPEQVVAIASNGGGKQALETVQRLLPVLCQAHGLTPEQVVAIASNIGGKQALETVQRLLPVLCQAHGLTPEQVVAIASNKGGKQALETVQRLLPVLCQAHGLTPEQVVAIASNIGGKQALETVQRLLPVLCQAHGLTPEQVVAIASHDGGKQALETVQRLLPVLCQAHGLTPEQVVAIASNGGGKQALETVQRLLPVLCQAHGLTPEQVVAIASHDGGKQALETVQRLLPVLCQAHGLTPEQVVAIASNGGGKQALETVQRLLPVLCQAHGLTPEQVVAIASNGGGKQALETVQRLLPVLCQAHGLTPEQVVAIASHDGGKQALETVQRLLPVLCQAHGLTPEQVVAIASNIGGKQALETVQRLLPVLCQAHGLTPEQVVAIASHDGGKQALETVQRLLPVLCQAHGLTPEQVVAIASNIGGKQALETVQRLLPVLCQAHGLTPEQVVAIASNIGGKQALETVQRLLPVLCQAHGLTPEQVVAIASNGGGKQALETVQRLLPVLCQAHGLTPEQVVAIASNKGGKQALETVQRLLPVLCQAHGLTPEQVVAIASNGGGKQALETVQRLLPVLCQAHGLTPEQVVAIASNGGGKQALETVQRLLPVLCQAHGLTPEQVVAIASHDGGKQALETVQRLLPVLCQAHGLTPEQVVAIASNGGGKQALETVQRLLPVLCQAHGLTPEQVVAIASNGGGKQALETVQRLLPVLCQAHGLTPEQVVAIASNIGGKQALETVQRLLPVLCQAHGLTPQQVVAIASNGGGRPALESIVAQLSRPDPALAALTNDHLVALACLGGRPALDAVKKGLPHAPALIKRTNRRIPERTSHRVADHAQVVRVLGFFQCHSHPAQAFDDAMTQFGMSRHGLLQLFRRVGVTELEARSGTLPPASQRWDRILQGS

B1: T15 site (dsDNA)
DNA 1: TCCTGACCATTCATCAGCCGTCTAT
DNA 2: ATAGACGGCTGATGAATGGTCAGGA
Regarding B1, the binding signal in data set [1] came out at 13.7 fold repression.

B2: T17 site (dsDNA)
DNA 1: TATTATTGGCCTTAACCATACTCTT
DNA 2: AAGAGTATGGTTAAGGCCAATAATA
In data set [2], B2 gave a binding signal of 195 fold repression.

B3: T12 site (dsDNA)
DNA 1: TATTTCGACGCTCATTCT
DNA 2: AGAATGAGCGTCGAAATA
Turning to B3, in data set [3], the binding signal was found to be 1220 fold repression.

B4: T18 site (dsDNA)
DNA 1: TCCATGTAAAACATTTTTCTGACAT
DNA 2: ATGTCAGAAAAATGTTTTACATGGA
Regarding B4, the binding signal in data set [4] is 18.5 fold repression.

B5: T20 site (dsDNA)
DNA 1: TCTAGACTCTTCACAATGTTCTTAT
DNA 2: ATAAGAACATTGTGAAGAGTCTAGA
Consider B5, for which, in data set [5], the binding signal was found to be 12.3 fold repression.

The values are drawn from patent publication US20200071711, “MODULAR CONSTRUCTION OF SYNTHETIC GENE CIRCUITS IN MAMMALIAN CELLS USING MATHEMATICAL MODELING OF CLOSED LOOP TRANSCRIPTIONAL REPRESSORS” (Tsinghua University, published 2020).
